These results are taken from article PMC6764986 (2019).

The target of test [1] is T1, ALFA-tagged target immobilized for SPR (TST-NEDD8-ALFA or GFP-ALFA) (synthetic construct, not fully specified).
T1 chain: SRLEEELRRRLTE
As to the kind of experiment: SPR; ligand GFP-ALFA.

In a further test the target is NbALFAPE. Description: SPR; ligand TST-NEDD8-ALFA.

Where no end group is shown, it is not given here.

B1: NbALFA (non-tagged) (VHH)
VHH: EVQLQESGGGLVQPGGSLRLSCTASGVTISALNAMAMGWYRQAPGERRVMVAAVSERGNAMYRESVQGRFTVTRDFTNKMVSLQMDNLKPEDTAVYYCHVLEDRVDSFHDYWGQGTQVTVSS
B1: the koff in test [1] was 9.4e-06 s⁻¹.

Turning to SRLEEELRRRLTE (other) [ALFA-tagged target immobilized for SPR (TST-NEDD8-ALFA or GFP-ALFA)], in the test with NbALFAPE, the Kd was found to be 11 nM and the koff turned out to be 0.0029 s⁻¹.
